Measurements from the RNAGym collection of RNA variant scans (doi:10.7554/elife.80360).

B1: CPEB3 Ribozyme (parent)
chain: GGGGGCCACAGCAGAAGCGUUCACGUCGCGGCCCCUGUCAGAUUCUGGUGAAUCUGCGAAUUCUGCUGU

Variants of: B1
Experiment: self-cleavage, relative activity (ratio to wild type); higher = more cleavage; co-transcriptional

| Variant | self-cleavage |
| --- | --- |
| C39U C45U | 0.862 |
| A40C G41A | 0.333 |
| A40C G41C | 0.324 |
| G41A A52U | 0.683 |
| G41A A52G | 0.716 |
| A40G G48A | 1 |
| A40G G48U | 0.969 |
| A40G G48C | 0.98 |
| C39U U64C | 0.699 |
| C39U U64G | 0.733 |
| C39U U44A | 0.517 |
| A40U G65A | 0.352 |
| A40U G65C | 0.304 |
| A40U G65U | 0.405 |
| G41A U49C | 0.825 |
| G41A U49G | 0.859 |
| G41A C54U | 0.961 |
| G41A C54G | 0.861 |
| A40C U49G | 0.658 |
| A40C U49A | 0.679 |
| A40C U49C | 0.584 |
| A40C U46G | 0.802 |
| A40C U46C | 0.273 |
| A40C U46A | 0.866 |

| Variant | self-cleavage |
| --- | --- |
| A40G G65C | 0.434 |
| A40G G65A | 0.756 |
| G41C A52C | 0.332 |
| A40C C45A | 0.534 |
| A40C C45U | 0.497 |
| A40C C45G | 0.531 |
| A40C C66U | 0.443 |
| A40C C66G | 0.36 |
| A40C C66A | 0.232 |
| G41A G65U | 0.379 |
| G41A G65C | 0.261 |
| A40G C57G | 0.326 |
| G41C A60U | 0.366 |
| G41C A60G | 0.304 |
| G41C A60C | 0.262 |
| A40U U55G | 0.839 |
| A40U U55A | 0.936 |
| A40U U55C | 0.828 |
| A40U A42U | 0.46 |
| A40U A42G | 0.189 |
| A40U A42C | 0.419 |
| G41C A51U | 0.542 |
| G41C A51C | 0.43 |
| A40C A51G | 0.494 |

| Variant | self-cleavage |
| --- | --- |
| A40C A51U | 0.324 |
| C39G U61A | 0.703 |
| C39G U61G | 0.597 |
| A40C A59G | 0.515 |
| A40C A59C | 0.346 |
| G41A A59C | 0.358 |
| A40C U62C | 0.255 |
| A40C U62G | 0.352 |
| A40C U62A | 0.385 |
| A40G A59C | 0.568 |
| A40G A59G | 0.935 |
| A40U C57G | 0.366 |
| A40C G47U | 0.905 |
| A40C G47A | 0.791 |
| A40C U55C | 0.515 |
| A40C U55A | 0.697 |
| A40G A51U | 0.891 |
| A40G A51C | 0.927 |
| A40G G58U | 0.963 |
| A40G G58A | 0.912 |
| A40G G58C | 0.973 |
| C39U U53C | 0.382 |
| C39U U53G | 0.61 |
| A40U C63G | 0.392 |

| Variant | self-cleavage |
| --- | --- |
| A40U C63U | 0.77 |
| C39G U46A | 0.997 |
| C39G U46G | 0.907 |
| A40U U67A | 0.776 |
| A40U U67C | 0.845 |
| A40U U67G | 0.886 |
| A40U U43C | 0.485 |
| A40U U43A | 0.306 |
| A40C U61A | 0.304 |
| A40C U61C | 0.339 |
| A40C U61G | 0.192 |
| A40U G41A | 0.537 |
| A40U G56A | 0.818 |
| G41A U61A | 0.463 |
| G41A U61G | 0.331 |
| G41A G50A | 0.707 |
| G41A U55G | 0.379 |
| G41A U55A | 0.596 |
| C39G G58A | 0.864 |
| C39G G58U | 1.01 |
| G41C A59G | 0.845 |
| G41C A59C | 0.225 |
| C39U | 0.954 |
| C39G U67C | 0.93 |

| Variant | self-cleavage |
| --- | --- |
| A40C G48U | 0.884 |
| A40G C54U | 0.952 |
| A40C U67A | 0.518 |
| A40C U67G | 0.744 |
| A40U U46A | 0.919 |
| A40U U46G | 0.878 |
| A40U U46C | 0.716 |
| A40G U61C | 0.48 |
| A40G U61G | 0.823 |
| A40G U61A | 0.863 |
| G41A U67A | 0.756 |
| G41A U67G | 0.777 |
| C39G G68C | 0.955 |
| C39G G68A | 0.95 |
| G41C C45G | 0.38 |
| G41C C45A | 0.34 |
| G41C C45U | 0.501 |
| A40G G68C | 0.953 |
| A40G G68A | 0.954 |
| G41A C57G | 0.299 |
| G41A C57A | 0.283 |
| G41A C57U | 0.368 |
| G41A C45U | 0.677 |
| G41A G48A | 0.989 |

| Variant | self-cleavage |
| --- | --- |
| A40G C45U | 0.933 |
| A40G C45A | 0.884 |
| C39U G56C | 0.887 |
| C39U G56A | 1 |
| A40G G56A | 0.949 |
| A40G G56U | 0.895 |
| A40C C57G | 0.316 |
| A40C C57A | 0.2 |
| G41A C63G | 0.348 |
| G41A C63U | 0.59 |
| C39G U55A | 0.866 |
| C39U G65A | 0.56 |
| C39U G65U | 0.498 |
| C39U G47C | 0.957 |
| G41A A51U | 0.511 |
| A40U C54G | 0.457 |
| A40U C54U | 0.759 |
| C39U C66A | 0.541 |
| C39U C66U | 0.885 |
| A40G U64A | 0.759 |
| A40G G47A | 0.987 |
| A40G G47U | 1.02 |
| G41A G47C | 0.913 |
| A40G G41A | 0.706 |

| Variant | self-cleavage |
| --- | --- |
| A40G G41C | 0.433 |
| A40G G41U | 0.722 |
| A40U U62G | 0.426 |
| A40U U62C | 0.351 |
| A40U U62A | 0.436 |
| A40G U49A | 0.969 |
| A40G U49C | 0.877 |
| A40G U49G | 0.999 |
| A40G U46C | 0.942 |
| A40G U46A | 0.971 |
| A40G U46G | 0.977 |
| G41C A42U | 0.504 |
| G41C A42C | 0.26 |
| C39U U61C | 0.435 |
| C39U U61A | 0.766 |
| C39U U62G | 0.622 |
| C39U U62C | 0.514 |
| C39U U62A | 0.702 |
| G41A U53A | 0.65 |
| G41A U53G | 0.566 |
| C39U G48U | 0.941 |
| C39U G48A | 0.998 |
| A40U A51G | 0.842 |
